In article PMC10754444:

Target: ubiquitin (UniProt P0CG48)

Substance	Kcat/Km of Ub-AMC hydrolysis in vitro (substrate Ub-AMC, R&D Systems; 1.0 μM enzyme; 25°C) [M⁻¹ s⁻¹]	other results
PRRSV DV PLP2_(385-578) V518S (domain or fragment)		Kcat/Km of Ub-AMC hydrolysis in vitro (substrate Ub-AMC, R&D Systems; 0.5 μM enzyme; 25°C): 1100 M⁻¹ s⁻¹
PRRSV DV PLP2_(385-578) V518S/V520A (domain or fragment)	133	
PRRSV DV PLP2_(385-578) V520A (domain or fragment)	190	
wt PRRSV DV PLP2_(385-578) (domain or fragment)		Kcat/Km of Ub-AMC hydrolysis in vitro (substrate Ub-AMC, R&D Systems; 25°C): 5000 M⁻¹ s⁻¹
